In patent US20250188186A1:

Assays:
[1] = biological target: GST-tagged human FcRn-β2m (human) (UniProt P55899); experiment: ELISA, antibody immobilized, FcRn titrated (the concentration is that of FcRn), anti-FLAG-HRP, pH 6.0 [pH 6.0]
[2] = biological target: FcγRIIIa allele V158 on NK-92 effector cells (human) (UniProt P08637); experiment: cell-based or functional assay
[3] = biological target: human FcγRIIIa F158 ectodomain, N-terminal AVI and C-terminal His tags (human) (UniProt P08637); experiment: BLI, antibody on FAB2G tips, FcγRIIIa F158 in solution, pH 6.5, kinetic Kd
human FcγRIIIa F158 ectodomain, N-terminal AVI and C-terminal His tags (human), sequence (P08637 17-208): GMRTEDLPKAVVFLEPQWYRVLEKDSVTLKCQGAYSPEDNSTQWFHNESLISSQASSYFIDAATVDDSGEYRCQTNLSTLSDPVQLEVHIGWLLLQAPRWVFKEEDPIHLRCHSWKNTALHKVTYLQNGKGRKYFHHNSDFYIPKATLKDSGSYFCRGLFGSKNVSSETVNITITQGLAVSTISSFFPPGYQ

[4] = biological target: human FcγRIIIa F158 ectodomain, N-terminal AVI and C-terminal His tags (human) (UniProt P08637); experiment: BLI, antibody on FAB2G tips, FcγRIIIa F158 in solution, pH 7.4, kinetic Kd
[5] = biological target: human FcγRIIb ectodomain, N-terminal AVI and C-terminal His tags (human) (UniProt P31994); experiment: BLI, antibody on FAB2G tips, FcγRIIb in solution, pH 6.5, steady-state Kd,SS
human FcγRIIb ectodomain, N-terminal AVI and C-terminal His tags (human), sequence (P31994 43-217): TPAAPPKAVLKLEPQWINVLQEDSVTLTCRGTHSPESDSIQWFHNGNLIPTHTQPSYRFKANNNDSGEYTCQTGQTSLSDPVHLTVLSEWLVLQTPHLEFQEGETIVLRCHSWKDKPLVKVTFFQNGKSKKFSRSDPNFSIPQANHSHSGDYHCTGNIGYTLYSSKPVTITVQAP

[6] = biological target: human FcγRIIb ectodomain, N-terminal AVI and C-terminal His tags (human) (UniProt P31994); experiment: BLI, antibody on FAB2G tips, FcγRIIb in solution, pH 7.4, steady-state Kd,SS
[7] = biological target: human FcγRIIa H131 ectodomain, N-terminal AVI and C-terminal His tags (human) (UniProt P12318); experiment: BLI, antibody on FAB2G tips, FcγRIIa H131 in solution, pH 6.5, steady-state Kd,SS
human FcγRIIa H131 ectodomain, N-terminal AVI and C-terminal His tags (human), sequence (P12318 34-217): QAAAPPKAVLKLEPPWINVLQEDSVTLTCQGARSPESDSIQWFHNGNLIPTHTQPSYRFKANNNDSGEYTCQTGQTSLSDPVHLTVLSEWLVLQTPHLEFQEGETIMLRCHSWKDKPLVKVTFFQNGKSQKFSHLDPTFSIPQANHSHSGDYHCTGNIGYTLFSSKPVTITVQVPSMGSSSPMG

[8] = biological target: human FcγRIIa H131 ectodomain, N-terminal AVI and C-terminal His tags (human) (UniProt P12318); experiment: BLI, antibody on FAB2G tips, FcγRIIa H131 in solution, pH 7.4, steady-state Kd,SS
[9] = biological target: human FcγRIIa R131 ectodomain, N-terminal AVI and C-terminal His tags (human) (UniProt P12318); experiment: BLI, antibody on FAB2G tips, FcγRIIa R131 in solution, pH 6.5, steady-state Kd,SS
human FcγRIIa R131 ectodomain, N-terminal AVI and C-terminal His tags (human), sequence (P12318 34-217 H167R): as the sequence (P12318 34-217) above, with H134R counted along it

[10] = biological target: human FcγRIIa R131 ectodomain, N-terminal AVI and C-terminal His tags (human) (UniProt P12318); experiment: BLI, antibody on FAB2G tips, FcγRIIa R131 in solution, pH 7.4, steady-state Kd,SS
[11] = biological target: human FcγRIIIa F158 ectodomain, N-terminal AVI and C-terminal His tags (human) (UniProt P08637); experiment: BLI, antibody on FAB2G tips, FcγRIIIa F158 in solution, pH 6.5, steady-state Kd,SS (Langmuir fit)
[12] = biological target: human FcγRIIIa F158 ectodomain, N-terminal AVI and C-terminal His tags (human) (UniProt P08637); experiment: BLI, antibody on FAB2G tips, FcγRIIIa F158 in solution, pH 7.4, steady-state Kd,SS (Langmuir fit)

FcγRIIIa allele V158 on NK-92 effector cells (human), sequence (P08637 17-254 F176V): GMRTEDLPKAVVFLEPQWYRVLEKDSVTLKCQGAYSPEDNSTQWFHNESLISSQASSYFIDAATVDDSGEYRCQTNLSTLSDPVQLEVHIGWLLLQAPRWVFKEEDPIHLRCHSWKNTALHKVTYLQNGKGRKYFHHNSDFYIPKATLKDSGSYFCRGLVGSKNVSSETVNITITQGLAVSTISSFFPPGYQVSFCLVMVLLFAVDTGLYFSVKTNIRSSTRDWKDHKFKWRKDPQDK

| EC50 (read off the curve) [1] [µg/mL] | ADCC EC50, SKBR3 target cells, NK-92 (V158) effector cells, pH 6.5 [2] [ng/mL] | ADCC EC50, SKBR3 target cells, NK-92 (V158) effector cells, pH 7.4 [2] [ng/mL] | ADCC: lysis of calcein-loaded SKOV3 target cells, 50 ng/mL antibody, E:T 10:1, 4 h, pH 6.5 [2] [%] | ADCC: lysis of calcein-loaded SKOV3 target cells, 50 ng/mL antibody, E:T 10:1, 4 h, pH 7.4 [2] [%] | Kd [3] [nM] | Kd [4] [nM] | Kd [5] [nM] | Kd [6] [nM] | Kd [7] [nM] | Kd [8] [nM] | Kd [9] [nM] | Kd [10] [nM] | Kd [11] [nM] | Kd [12] [nM] | Substance |
| --- | --- | --- | --- | --- | --- | --- | --- | --- | --- | --- | --- | --- | --- | --- | --- |
| 0.01 |  |  |  |  |  |  |  |  |  |  |  |  |  |  | hu4D5 antibody with M252Y/S254T/T256E (YTE) Fc |
|  | 121 | 2310 | 47.6 | 19.5 | 538 | 909 | 112 | 109 | 331 | 497 | 37.1 | 37.1 | 603 | 1090 | hu4D5 antibody with acid-Fc (S267E, H268D, Y296H) |
